# According to the RNAGym collection of RNA variant scans (doi:10.7554/elife.90254):
# B1: LINE1-full (parent)
# chain: UACGUAGGUGGUUUUCCCCUGAUAGUGCUAAGGGGGCCUGGAAGUUUGGACUGGGCAGAGCUCAACACAGCGUGGCAAAGUGGCUGUGGCUAGACUGCCUCUCUGGAUUCCUCGUCACUCAGCAGGGCAUCUCUGAGAGAAAUGCC
# Variants of: B1
# Test: self-cleavage, relative activity (ratio to wild type); higher = more cleavage; in vitro, sequencing; the parent is a self-cleaving ribozyme
row,Variant,self-cleavage
1,C37A U45C,1.01
2,C37U U132C,1.21
3,G35A G83C,0.71
4,G33A A59U,0.65
5,G33A A59G,0.12
6,C38A U39C,1.77
7,G36U A43U,1.24
8,G34A G82U,2.19
9,G35C A65G,0.04
10,G34C C37U,0.84
11,G36C A77G,1.6
12,G34A A77U,1.33
13,C37U A129U,0.45
14,G35C U62C,0.06
15,G34A U87G,0.2
16,C38U A78G,1.28
17,G33C A142C,1.28
18,G35A A50G,0.58
19,G35A U143C,1.04
20,G34A U112C,0.94
21,G36U A141G,0.91
22,G35A A65G,0.05
23,G35U C145U,1.21
24,C37A G58A,0.03

row,Variant,self-cleavage
1,C37A G40U,1.04
2,G34A A57C,0.07
3,G35A A136G,1.21
4,G35A A69G,0.21
5,G35A A69U,0.02
6,C37G A129G,0.9
7,G35C A94G,0.14
8,G33U U115A,1.38
9,G34A A124G,0
10,G34A A124U,1.32
11,C37G A77U,1.06
12,C38U A79G,1.29
13,G36C C146U,1.29
14,G36C C146G,1.21
15,G34A A107U,1.2
16,C37U G40A,0.68
17,G36A U46C,1.32
18,G34A G54A,0.78
19,C37U U119A,0.99
20,G36C C71G,0.15
21,G34A A129G,1.08
22,C37G A117G,1.66
23,G34A A140U,1.29
24,G34U U62C,0.02

row,Variant,self-cleavage
1,C38G A43G,1.6
2,G35U A138G,1.47
3,G36A A42G,1.07
4,G33A U46C,1.12
5,G34C U96C,0.14
6,G34U A67G,0.54
7,C37U A67G,0.22
8,G36U U62C,0.02
9,G33U A43G,0.64
10,G36A C38A,1.18
11,G33U U39C,1.16
12,C37G U115C,1.44
13,G35U A117U,1.04
14,C37U U85A,0.05
15,G35U A129G,1.57
16,G34A A78U,1.75
17,G34A A78G,1.27
18,G34U C63A,0.04
19,G33A U119C,0.66
20,G36A A117G,1.34
21,G36A U47C,0.9
22,C37G U91C,0.32
23,G34C U115C,1.82
24,G36U A77G,2.39

row,Variant,self-cleavage
1,G35U U112C,0.75
2,G33A A140G,1.29
3,G34C U130C,0.88
4,G36C U104A,1.43
5,G34A C66U,0.05
6,G34U A124U,1.6
7,C37G A124G,1.61
8,C38A A140U,1.1
9,C38A A142G,0.64
10,G34C U73C,1.82
11,G34A U143G,1.64
12,C38A A64G,0.18
13,G36A A79G,0.96
14,C37A U87G,0.12
15,G35C U91C,0.81
16,G36C U96C,0.17
17,C38U A121G,1.72
18,C38U A67U,0.07
19,C38U A67G,0.42
20,G34U A50U,0.39
21,G36C A121G,1.39
22,G36U U52C,1.19
23,G34A U62C,0.02
24,G34C A138G,2.05

row,Variant,self-cleavage
1,G34U A94G,0.26
2,C37A A65G,0.01
3,G33U G75U,0.91
4,G34U U46A,1.32
5,C38G U39G,1.28
6,G35U A79G,1.22
7,G35A U119C,1.3
8,G36A G89U,0.01
9,G36U A69G,0
10,C38U A107G,1.63
11,C37U C128A,1.23
12,G36C A141G,1.36
13,G33C G89U,0.06
14,G35C U46C,1.38
15,G36A A43G,1.07
16,G33U U119C,1.19
17,C37G A57G,0.73
18,C37G A57U,0.1
19,G34U A42U,1.15
20,G34A C146A,1.39
21,C38A,1.28
22,C38U,1.33
23,G33A A67G,0.63
24,C38U A64U,0.35

row,Variant,self-cleavage
1,C38U A64G,0.17
2,G35C,1.31
3,G35A,1.1
4,G35U,1.22
5,G33U A107G,1.74
6,G34A A67C,0.03
7,G34A U47C,1.18
8,C38A G44U,1.48
9,C38U A94G,0.29
10,C38A A43G,0.59
11,G36C U91C,0.51
12,G36C U62C,0.05
13,G33U A138G,1.68
14,G35A A78G,0.9
15,G36A C95G,0.02
16,G36A U115C,1.53
17,G36A U115A,1.39
18,C37G U132A,1.23
19,C37G U132C,0.94
20,G34U C90U,0
21,G34U U115C,1.84
22,G36U A140G,1.18
23,G35U U130C,1.74
24,G36U U104C,2.32

row,Variant,self-cleavage
1,C37A U91C,0.41
2,G34C A124G,2.03
3,G34C A124U,1.91
4,C37G U45C,1.6
5,C37U A78G,0.96
6,G34A G72A,1.24
7,G33U U85C,0.06
8,G33A G55A,0.73
9,G34A U132A,1.51
10,G35U A124G,0.68
11,C37U A124G,0.59
12,C37U A124U,1.12
13,C37U U104C,1.28
14,C37U U104A,0.59
15,C37G A141G,1.66
16,G35A A64U,0.31
17,G33U G126C,1.21
18,G34U A69G,0.47
19,G36U A78G,1.5
20,G33A U108C,1.47
21,G36A A141G,1.38
22,C37U G53A,1.33
23,G35A G36C,1.05
24,G36A A77G,1.35

row,Variant,self-cleavage
1,G35A A107U,1.41
2,G35A U130A,1.1
3,G35A A57U,0.05
4,G34U U47G,1.04
5,G33U U104C,1.62
6,G33U U104A,0.93
7,G35A U109A,1.59
8,G36A U112C,1.29
9,G34U A136G,1.54
10,C37U A79G,1.1
11,G36A C84U,0.15
12,C38A U108A,1.01
13,G35U A69G,0.6
14,G36C U143C,1.43
15,G34A C37U,1.1
16,C38U A129U,0.31
17,G35C C113A,1.68
18,G34U A140U,1.64
19,G34U A140G,1.67
20,G35C A141G,0.61
21,G36C U85C,0.16
22,G35U U81A,1.82
23,G34U U104C,1.34
24,C37A G88U,0

row,Variant,self-cleavage
1,G36C U47C,0.92
2,G35A A42G,1.17
3,G34C A140C,1.79
4,G34C A140U,1.31
5,G35A A142G,1.14
6,C37G A92G,0.04
7,G34U C146U,1.39
8,G33U C90G,0.07
9,G36C U45C,1.05
10,C37U C68A,0.03
11,G36U U96C,0.07
12,C38U A141G,0.84
13,G33C C71U,1.93
14,G36C A94G,0.32
15,G35A C131U,1.67
16,G34A A50G,0.87
17,G34A A50U,0.38
18,G35U U100A,0.78
19,C37G A121G,1.23
20,G33U U73A,1.38
21,C38A A124G,0.68
22,G35U G40A,0.85
23,G35U U102C,1.73
24,G35U U102A,1.8

row,Variant,self-cleavage
1,C38A U96G,0.1
2,C38A A129G,1.46
3,G33A G83A,0.92
4,C38U A140G,1.24
5,G33U A140G,1.83
6,G36A U143C,1.57
7,C38U A138C,1.46
8,G35U A50U,0.57
9,G34A G126A,1.68
10,G33A U100C,1.28
11,G33U U132G,1.74
12,G35A U45C,0.97
13,G34A U73A,0.8
14,G36A U52A,1.21
15,G33A A138U,1.19
16,C38A G55C,0.07
17,G35A G106A,1.21
18,C37U G54U,0.41
19,G33A A136G,1.35
20,G36A U119A,1.36
21,G36A U119C,2.42
22,G34A G114A,1.47
23,G33A U62C,0.05
24,G33A U62A,0.01

row,Variant,self-cleavage
1,G36A U109C,0.75
2,G35A U100C,1.36
3,G33U A129G,1.34
4,C37U U143C,0.84
5,C37A U39C,1.35
6,G35A U85C,0.09
7,G35U A141G,1.09
8,C38A U109A,1.36
9,G36C A57G,0.9
10,G36C A57U,0.07
11,G36C U87A,0.14
12,G35U G55U,0.72
13,C38U A92G,0.05
14,C37U U47A,1.41
15,G33U A77G,1.78
16,G33U A77C,0.83
17,G33A A142U,1.43
18,C37U U102A,1.19
19,C37U U100C,1.66
20,G35U A142G,1.56
21,G33U,1.27
22,G33C,1.17
23,G35U U91C,0.52
24,C38A G97A,0.05

row,Variant,self-cleavage
1,C38A A50G,0.51
2,C37U G86A,0.1
3,G33C A136G,0
4,G35A A92C,0.05
5,C37U C123U,1.67
6,G36C U132C,1.27
7,G34A U46A,1.2
8,G34U U100C,1.5
9,G35A G72A,1.18
10,G33A U130C,1.04
11,G33U G144A,1.21
12,C37U A59G,0.07
13,G33U U96C,0.17
14,G33U U96A,0.06
15,G34A A59G,0.07
16,G34C U143C,2
17,G35U G74A,1.22
18,G33C U115C,2.26
19,C37U U62C,0.04
20,G36A A69G,0.34
21,G34A U102A,1.16
22,G33A U143C,1.44
23,G33A U143A,1.07
24,C37G U134C,0.66

row,Variant,self-cleavage
1,G36A U45C,1.81
2,G33U A121G,0.64
3,C37A A136G,1.04
4,G35U A65U,0.12
5,G35U A77U,1.31
6,G36A U62C,0.05
7,G35A A79G,1.36
8,G34A U96A,0.05
9,G34A U96C,0.05
10,G34A U96G,0.09
11,C37U U108A,1.01
12,C37U A57U,0.05
13,G33U U62C,0.04
14,C37G A43G,1.36
15,C38U A57U,0.15
16,G35U U46A,1.07
17,G33U A136U,1.27
18,G36A G105A,1.46
19,G36A C113U,1.02
20,G36A C118G,1.04
21,G34U U108C,1.56
22,G33A U52A,0.53
23,G33C U45C,1.95
24,G36A A124C,2.16

row,Variant,self-cleavage
1,G36A A124U,0.31
2,G35U U104C,0.8
3,G33U U87C,0.09
4,C38U A136G,1.89
5,G35C U143G,0.86
6,G35C U143A,1.39
7,G34U A92G,0.14
8,G35A A117G,1.7
9,G35A A117U,0.56
10,G36U A79G,1.3
11,C37U U134C,1.25
12,G33A U39C,1.16
13,G33U G74A,0.88
14,G36C G82U,1.65
15,G36A G40U,0.66
16,G33C A64U,0.64
17,C37U G55A,0.12
18,G34A U130C,1.32
19,G36A U130C,1.27
20,G35A A140G,0.81
21,G36C U39G,0.76
22,G35U A43U,1.33
